Broadly, the Kd is the free concentration of one partner at which half of the binding sites on the other are occupied at equilibrium, for simple one-to-one binding. The low end stands for higher affinity, the high end for lower affinity.

The values below come from US20240141048A1 (published 2024).

Where two headings read alike, the source gives them in different places.

Holding throughout (test): BLI
For assay [1], the target named is T1, His-tagged cynomolgus VISTA extracellular domain protein (in house) (cynomolgus, UniProt A0A7N9IB00 33-194).
T1 chain: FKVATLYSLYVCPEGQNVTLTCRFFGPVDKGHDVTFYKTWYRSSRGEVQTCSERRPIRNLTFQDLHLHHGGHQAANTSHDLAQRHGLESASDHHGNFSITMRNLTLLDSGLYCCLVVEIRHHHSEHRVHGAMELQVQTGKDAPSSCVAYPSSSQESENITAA

Assay [2] deals with T2, His-tagged human VISTA extracellular domain protein (in house) (UniProt Q9H7M9 33-194).
T2 sequence (Q9H7M9 33-194): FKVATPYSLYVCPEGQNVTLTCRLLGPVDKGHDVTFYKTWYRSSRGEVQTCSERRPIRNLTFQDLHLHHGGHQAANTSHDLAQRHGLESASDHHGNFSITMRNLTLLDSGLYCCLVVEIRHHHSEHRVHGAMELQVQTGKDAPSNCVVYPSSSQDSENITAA
Assay [3] deals with T1, His-tagged cynomolgus VISTA ….
Assay [4] has as its target T2, His-tagged human VISTA extracellular …. This is another data set of the same source.
Assay [5] deals with T1, His-tagged cynomolgus VISTA ….
Assay [6] addresses T2, His-tagged human VISTA extracellular …. This is another data set of the same source.
Assay [7] deals with T1, His-tagged cynomolgus VISTA ….
In assay [8] the target is T2, His-tagged human VISTA extracellular …. The source holds these as a separate data set.
In assay [9] the target is T1, His-tagged cynomolgus VISTA ….
Assay [10] has as its target T2, His-tagged human VISTA extracellular …. The source holds these as a separate data set.

B1: anti-VISTA antibody 9F9 (antibody, V domains shown)
VH: QVQFQQSGAELARPGASVKLSCKASGYTFTGYWMQWVKQRPGQGLEWIGAIYPGDGDTRYSQKFKGKVTLTADKSSSTAYMQLSSLASEDSAVYYCARRDYGAWFAYWGQGTLVTVSA
VL: DIKVTQSPSSMYASLGERVTITCKASQDINSYLSWFQQKPGKSPKTLIYRANRLVDGVPSRFSGSGSGQDYSLTISSLDYEDMGIYYCLQYDEFPYTFGGGTKLEIK
Consider B1, for which the Kd came to 7.37 nM in assay [1] and 2.45 nM in assay [2].

B2: anti-VISTA antibody 20E4 (antibody, V domains shown)
VH: QVQLQQSGAELMKPGASVKISCKATGYTFSSSWVEWVRQRPGHGLEWIGEIFPGSGSTHYNEKFKGKATFTADTSSNTAYLQLSSLTSDDSAVYYCARRPPGWFFDVWGAGTTVTVSS
VL: DIVMTQSHKFMSTSVGDRVSITCKASQDVSTDVAWYQQKPGQSPKLLIYSASYRYTGVPDRFTGSGSGTDFTFTISSVQAEDLAVYYCQQHYSTPWTFGGGTKLEIK
In the case of B2, the Kd in [3] was found to be 6.53 nM; in assay [4], 0.011 nM.

B3: anti-VISTA antibody 16A1 (antibody, V domains shown)
VH: QVQLQQSGAELMKPGASVKISCKATGYTFSSSWIEWVKQRPGHGLEWIGEIFPGSGSLNFNEKFKGKATFTADTSSNTAYLQLSSLTSDDSAVYYCARRPPGWFFDVWGAGTTVTVSS
VL: DIVMTQSHKFMSTSVGDRVSITCKASQDVTTDVAWYQQKPGQSPKLLIYSASYRYTGVPDRFTGSGSGTDFTFTISSVQAEDLTVYYCQQHYSSPWTFGGGTKLEIK
In the case of B3, the Kd in assay [5] was 2.57 nM; in assay [6], 0.00278 nM.

B4: anti-VISTA antibody 17E9 (antibody, V domains shown)
VH: QVQLQQSGAELMKPGASVKISCTATGYTFSSCWIEWVKQRPGHGLEWLGEILPGSDYTNYNEKFKDKATFTADTSSDTAYMQLSSLTSEDSAVYYCARRPPGWYFDVWGAGTAVTVSS
VL: DIVMTQSHKFMSTSVGDRVSITCKASQDVSTDIAWYQQKPGQSPKLLIYSASYRFTGVPDRFTGSGSGTDFTFTISSVQAEDLAVYYCQHQYSTPWTFGGGTKLDIK
Regarding B4, the Kd was determined as 3.35 nM in assay [7] and 0.00421 nM in assay [8].

B5: anti-VISTA antibody 15D11 (antibody, V domains shown)
VH: EVQLQQSGSELVKAGASVKLSCTASGFKIKDTFIHWVKQRPEQGLDWIGRIDPANGNSKYDPKFQGKATITADTSSNTAYLQLSSLTSEDTAVYYCARWPSNWEAMDYWGQGTSVTVSS
VL: QIVLTQSPAIMSASPGEKVTMTCSASSSVSYMYWYQQKPGSSPRLLIYDTSNLASGVPFRFSGSGSGTSYSLTISRMEAEDAATYYCQQWISYPLTFGTGTKLELK
Take B5: the Kd in assay [9] came to 0.00583 nM; in [10], 12.5 nM.
